B2: PSMGFR minus 10 amino acids from the C-terminus (peptide)
peptide: GTINVHDVETQFNQYKTEAASRYNLTISDVSVSDV
notes: also called C-10; C-10 PSMGFR

Legend:
[1] = target: T1, PSMGFR peptide (Primary Sequence of the MUC1 Growth Factor Receptor); assay: ELISA on immobilised PSMGFR (FIG. 2B)
T1 construct: Synthetic peptide; also called MUC1* peptide; MUC1* PSMGFR peptide
T1 peptide: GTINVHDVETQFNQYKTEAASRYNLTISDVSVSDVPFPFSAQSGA

[2] = target: T2, PSMGFR minus 10 amino acids from the N-terminus; assay: selection screens (FIG. 3A-C cited)
T2 construct: also called N-10; N-10 PSMGFR
T2 peptide: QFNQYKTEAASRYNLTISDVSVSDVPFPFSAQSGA

[3] = target: T3, NME7-AB (human, UniProt Q9Y5B8 92-376, limits assumed); assay: ELISA on immobilised C-10 peptide (FIG. 2A)
T3 construct: also called NM23-H7
T3 sequence: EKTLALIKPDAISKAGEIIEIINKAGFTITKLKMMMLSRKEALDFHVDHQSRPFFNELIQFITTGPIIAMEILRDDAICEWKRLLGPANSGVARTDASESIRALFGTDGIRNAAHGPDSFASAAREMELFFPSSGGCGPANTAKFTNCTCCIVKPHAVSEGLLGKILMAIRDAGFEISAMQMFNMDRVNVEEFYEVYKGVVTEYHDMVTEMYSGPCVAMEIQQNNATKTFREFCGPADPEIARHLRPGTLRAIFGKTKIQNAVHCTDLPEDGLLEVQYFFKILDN

[4] = target: T4, dimeric NME1 (human, UniProt P15531 1-152, limits assumed); assay: ELISA on immobilised C-10 peptide (FIG. 2D)
T4 construct: Used in dimer form; also called NM23-H1 dimers; dimeric NM23-H1
T4 sequence (P15531 whole entry): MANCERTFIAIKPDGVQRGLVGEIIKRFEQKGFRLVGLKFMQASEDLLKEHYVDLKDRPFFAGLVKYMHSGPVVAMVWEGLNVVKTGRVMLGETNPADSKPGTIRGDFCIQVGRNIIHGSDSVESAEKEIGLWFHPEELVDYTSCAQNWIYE

[5] = target: T1, PSMGFR peptide (Primary Sequence of the …); assay: ELISA on PSMGFR (FIG. 21A)
[6] = target: B2; assay: ELISA on immobilised N-10 and C-10 peptides (FIG. 2E)
[7] = target: T1, PSMGFR peptide (Primary Sequence of the …); assay: ELISA on immobilised PSMGFR, N-10 and C-10 (FIG. 22A)
[8] = target: T1, PSMGFR peptide (Primary Sequence of the …); assay: ELISA, surface coated with PSMGFR peptide (FIG. 5)
[9] = target: T1, PSMGFR peptide (Primary Sequence of the …); assay: ELISA on immobilised PSMGFR (FIG. 2C)

B1: mouse monoclonal antibody MN-C2 (antibody, V domains shown)
VH: EVQLEESGGGLVKPGGSLKLSCAASGFTFSGYAMSWVRQTPEKRLEWVATISSGGTYIYYPDSVKGRFTISRDNAKNTLYLQMSSLRSEDTAMYYCARLGGDNYYEYFDVWGAGTTVTVSS
VL: DIVITQSTASLGVSLGQRATISCRASKSVSTSGYSYMHWYQQRPGQPPKLLIYLASNLESGVPARFSGSGSGTDFTLNIHPVEEEDAATYYCQHSRELPFTFGGGTKLEIKR
notes: Mouse monoclonal IgG; the printed entries run a few residues into the constant regions
binding result [1]: binds | binding result [2]: binds

B2
binding result [3]: no binding | binding result [4]: no binding

B3: hu MN-E6 scFv-Fc-Y407R-hingeless (Fc fusion)
chain: AAQPAEVQLVESGGGLVKPGGSLRLSCAASGFTFSRYGMSWVRQAPGKRLEWVSTISGGGTYIYYPDSVKGRFTISRDNAKNTLYLQMNSLRAEDTAVYYCTRDNYGRNYDYGMDYWGQGTLVTVSSGGGGSGGGGSGGGGSEIVLTQSPATLSLSPGERATLTCSATSSVSYIHWYQQRPGQSPRLLIYSTSNLASGIPARFSGSGSGSDYTLTISSLEPEDFAVYYCQQRSSSPFTFGSGTKVEIKAPELLGGPSVFLFPPKPKDTLMISRTPEVTCVVVDVSHEDPEVKFNWYVDGVEVHNAKTKPREEQYNSTYRVVSVLTVLHQDWLNGKEYKCKVSNKALPAPIEKTISKAKGQPREPQVYTLPPSREEMTKNQVSLTCLVKGFYPSDIAVEWESNGQPENNYKTTPPVLDSDGSFFLRSKLTVDKSRWQQGNVFSCSVMHEALHNHYTQKSLSLSPGK
notes: The construct derives from the pSECTag2 E6 scFv-Fc, so it carries the leader and AAQPA before the scFv; also called MN-E6 scFv-Fc with deleted hinge and Y407R
binding result [5]: binds

B4: mouse monoclonal antibody MN-C3 (antibody, V domains shown)
VH: QVQLQQSGPELVRPGVSVKISCKGSGYRFTDYAMNWVKQSHAKSLEWIGVISTFSGNTNFNQKFKGKATMTVDKSSSTAYMELARLTSEDSAMYYCARSDYYGPYFDYWGQGTTLTVSS
VL: DVLMTQTPLSLPVSLGDQASISCRSSQTIVHSNGNTYLEWYLQKPGQSPKLLIYKVSNRFSGVPDRFSGSGSGTDFTLKINRVEAEDLGVYYCFQGSHVPFTFGSGTKLEIK
notes: Mouse monoclonal IgG
binding result [6]: binds | binding result [7]: binds

B5: humanized MN-C2 scFv (scFv, V domains shown)
VH: EVQLVESGGGLVKPGGSLRLSCAASGFTFSGYAMSWVRQAPGKGLEWVSTISSGGTYIYYPDSVKGRFTISRDNAKNSLYLQMNSLRAEDTAVYYCARLGGDNYYEYFDVWGKGTTVTVSS
VL: DIVLTQSPASLAVSPGQRATITCRASKSVSTSGYSYMHWYQQKPGQPPKLLIYLASNLESGVPARFSGSGSGTDFTLTINPVEANDTANYYCQHSRELPFTFGGGTKVEIKR
notes: also called huMN-C2 scFv; hu MN-C2 scFv; not shown: Linker; which one was te; 6xHis tag (detected with Anti-Penta-His)
EC50 [8]: ~333 nM

B6: mouse monoclonal antibody MN-E6 (antibody, V domains shown)
VH: EVKVVESGGDLVKPGGSLKLSCVVSGFTFSRYGMSWVRQTPGKRLEWVATISGGGTYIYYPDSVKGRFTISRDNAKNTLYLQMSSLKSEDTAMYHCTRDNYGRNYDYGMDYWGQGTSVTVSS
VL: QIVLTQSPAIMSASPGEEVTLTCSATSSVSYIHWFQQRPGTSPKLWIYSTSNLASGVPVRFSGSGYGTSYSLTISRMEAEDAATYYCQQRSSSPFTFGSGTKLEIK
notes: Mouse monoclonal IgG; the constant regions are not; also called parent mouse MN-E6 antibody
binding result [9]: binds | binding result [2]: binds

Source: patent US20230183373A1 (MINERVA BIOTECHNOLOGIES, published 2023)
